Experimental data reported in patent US20150293119A1.
Values belong to the substance of their own block, whether it stands above or below them.

Assays:
[1] = biological target: human CNP-22 (AA 82-103) (human) (UniProt P23582); experiment: radioimmunoassay
[2] = biological target: human CNP-53 (AA 51-103) (human) (UniProt P23582); experiment: radioimmunoassay
[3] = biological target: ANP (Homo sapiens (Human)) (UniProt P01160); experiment: radioimmunoassay, competition with I125-labeled CNP
[4] = biological target: BNP (Homo sapiens (Human)) (UniProt P16860); experiment: as above
[5] = biological target: adrenomedullin (Homo sapiens (Human)) (UniProt P35318); experiment: as above
endothelin = experiment: as above
[6] = biological target: human CNP-53 (AA 51-103) (human) (UniProt P23582); experiment: as above
[7] = biological target: recombinant human MMP-9/NGAL complex (human) (UniProt P14780); experiment: ELISA (Quantikine, R&D Systems)

- cross-reactivity [1]: 100%
Substance: antibody that detects human CNP-53, non-equilibrium radioimmunoassay kit from Phoenix Pharmaceutical (tool reagent)

- cross-reactivity [2]: 59%
Substance: antibody that detects human CNP-22, non-equilibrium radioimmunoassay kit from Phoenix Pharmaceutical (Example 2) (tool reagent)

- cross-reactivity [3]: < 1%
- cross-reactivity [4]: < 1%
- cross-reactivity [5]: < 1%
- cross-reactivity (endothelin): < 1%
- cross-reactivity [6]: 97%
Substance: antibody to human CNP-22 of the non-equilibrium radioimmunoassay kit from Phoenix Pharmaceutical (Example 1) (tool reagent)

- cross-reactivity [7]: 0.3%
Substance: NGAL enzyme-linked immunoassay (Quantikine ELISA, R&D Systems) (tool reagent)
